The values that follow come from patent US20210268016A1 (YALE UNIVERSITY, published 2021).

The experiment deals with biotinylated Aβ1-42 oligomers (Aßo) prepared from biotinylated synthetic Aβ1-42 peptide (human). Briefly: biolayer interferometry, biotinylated Aßo on streptavidin sensor. (In general: Biolayer interferometry detects binding as a change in optical thickness at a sensor tip.)

B1: recombinant full-length human PrP^C (AA23-231) (receptor)
chain: not shown
As to B1, the binding result is “binds”.
